Earlier results, collected in publication PMC2562372.
pKd: −log10 of the molar value.

Columns and labels:
NRP1 (Homo sapiens) = NRP1 (Homo sapiens) (UniProt O14786)
VEGFR2 (Homo sapiens) = VEGFR2 (Homo sapiens) (UniProt P35968)
VEGFR1 (Homo sapiens) = VEGFR1 (Homo sapiens) (UniProt P17948)
Sequence of UniProt P17948 (P17948 27-1338): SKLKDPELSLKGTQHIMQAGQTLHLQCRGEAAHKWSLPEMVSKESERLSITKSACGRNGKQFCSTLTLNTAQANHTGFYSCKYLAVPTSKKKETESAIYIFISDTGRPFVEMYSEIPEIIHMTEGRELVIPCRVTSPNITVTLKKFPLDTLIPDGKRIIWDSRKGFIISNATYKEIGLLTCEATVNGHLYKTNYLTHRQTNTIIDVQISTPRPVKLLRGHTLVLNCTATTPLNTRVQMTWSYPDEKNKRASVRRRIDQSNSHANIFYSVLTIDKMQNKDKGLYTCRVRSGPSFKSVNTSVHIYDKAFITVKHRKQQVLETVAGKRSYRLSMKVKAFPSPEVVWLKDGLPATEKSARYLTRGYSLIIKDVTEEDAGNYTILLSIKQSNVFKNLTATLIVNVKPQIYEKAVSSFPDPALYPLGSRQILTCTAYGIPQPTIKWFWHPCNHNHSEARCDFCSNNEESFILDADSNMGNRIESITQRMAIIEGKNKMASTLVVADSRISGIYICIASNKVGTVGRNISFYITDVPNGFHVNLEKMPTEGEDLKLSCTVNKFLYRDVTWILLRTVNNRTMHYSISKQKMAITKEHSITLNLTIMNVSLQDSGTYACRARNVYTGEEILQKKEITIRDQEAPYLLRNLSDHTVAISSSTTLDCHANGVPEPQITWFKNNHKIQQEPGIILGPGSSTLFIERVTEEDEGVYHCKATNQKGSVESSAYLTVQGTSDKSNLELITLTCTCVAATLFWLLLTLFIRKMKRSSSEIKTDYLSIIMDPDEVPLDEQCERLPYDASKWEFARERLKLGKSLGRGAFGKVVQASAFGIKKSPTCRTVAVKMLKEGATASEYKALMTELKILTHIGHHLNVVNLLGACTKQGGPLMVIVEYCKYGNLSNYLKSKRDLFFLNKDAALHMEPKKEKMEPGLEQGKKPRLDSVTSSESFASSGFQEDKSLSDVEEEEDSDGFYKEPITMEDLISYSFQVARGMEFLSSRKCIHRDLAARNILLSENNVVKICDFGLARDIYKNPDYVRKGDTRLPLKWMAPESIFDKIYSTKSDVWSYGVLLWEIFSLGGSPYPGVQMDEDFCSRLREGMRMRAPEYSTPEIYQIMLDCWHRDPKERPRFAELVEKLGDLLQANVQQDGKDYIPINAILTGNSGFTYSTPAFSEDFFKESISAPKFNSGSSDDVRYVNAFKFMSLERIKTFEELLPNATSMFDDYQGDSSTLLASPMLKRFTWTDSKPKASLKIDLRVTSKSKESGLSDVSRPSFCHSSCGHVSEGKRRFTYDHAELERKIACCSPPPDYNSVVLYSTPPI

Sequence of UniProt P35968 (P35968 20-1356): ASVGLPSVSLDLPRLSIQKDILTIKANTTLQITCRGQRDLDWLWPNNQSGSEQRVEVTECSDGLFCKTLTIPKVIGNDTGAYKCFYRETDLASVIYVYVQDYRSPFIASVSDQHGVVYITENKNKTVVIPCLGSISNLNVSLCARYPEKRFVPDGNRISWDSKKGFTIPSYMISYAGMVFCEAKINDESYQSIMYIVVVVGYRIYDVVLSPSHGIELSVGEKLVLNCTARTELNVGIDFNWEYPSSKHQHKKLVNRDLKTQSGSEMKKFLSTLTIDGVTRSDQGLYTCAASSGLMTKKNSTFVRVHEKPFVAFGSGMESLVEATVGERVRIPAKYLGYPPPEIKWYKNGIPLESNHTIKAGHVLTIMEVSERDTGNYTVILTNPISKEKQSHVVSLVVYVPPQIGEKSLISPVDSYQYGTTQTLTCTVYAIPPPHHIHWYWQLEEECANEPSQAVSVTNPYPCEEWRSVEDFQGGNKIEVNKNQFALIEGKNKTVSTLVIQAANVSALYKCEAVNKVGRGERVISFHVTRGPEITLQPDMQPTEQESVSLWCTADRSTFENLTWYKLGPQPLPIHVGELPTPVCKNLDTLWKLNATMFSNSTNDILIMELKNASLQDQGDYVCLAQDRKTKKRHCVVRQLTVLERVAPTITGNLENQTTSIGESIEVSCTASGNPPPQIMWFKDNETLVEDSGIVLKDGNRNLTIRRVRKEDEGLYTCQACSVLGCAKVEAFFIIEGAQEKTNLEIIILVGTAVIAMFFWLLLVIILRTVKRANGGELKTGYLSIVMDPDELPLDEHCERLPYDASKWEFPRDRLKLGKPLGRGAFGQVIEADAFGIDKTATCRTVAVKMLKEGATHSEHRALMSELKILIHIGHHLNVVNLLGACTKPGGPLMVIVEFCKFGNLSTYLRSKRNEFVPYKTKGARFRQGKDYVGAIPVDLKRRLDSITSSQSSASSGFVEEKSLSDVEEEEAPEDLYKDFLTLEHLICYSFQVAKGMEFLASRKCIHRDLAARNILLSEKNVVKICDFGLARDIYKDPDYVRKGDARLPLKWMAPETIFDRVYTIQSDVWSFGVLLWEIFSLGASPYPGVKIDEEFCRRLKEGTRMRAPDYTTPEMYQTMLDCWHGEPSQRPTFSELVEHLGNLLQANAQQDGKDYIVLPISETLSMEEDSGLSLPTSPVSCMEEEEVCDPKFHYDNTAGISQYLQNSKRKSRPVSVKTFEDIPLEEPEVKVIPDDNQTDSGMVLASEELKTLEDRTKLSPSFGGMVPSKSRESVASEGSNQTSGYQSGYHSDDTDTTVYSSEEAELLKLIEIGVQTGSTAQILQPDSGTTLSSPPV
Sequence of UniProt O14786 (O14786 22-923): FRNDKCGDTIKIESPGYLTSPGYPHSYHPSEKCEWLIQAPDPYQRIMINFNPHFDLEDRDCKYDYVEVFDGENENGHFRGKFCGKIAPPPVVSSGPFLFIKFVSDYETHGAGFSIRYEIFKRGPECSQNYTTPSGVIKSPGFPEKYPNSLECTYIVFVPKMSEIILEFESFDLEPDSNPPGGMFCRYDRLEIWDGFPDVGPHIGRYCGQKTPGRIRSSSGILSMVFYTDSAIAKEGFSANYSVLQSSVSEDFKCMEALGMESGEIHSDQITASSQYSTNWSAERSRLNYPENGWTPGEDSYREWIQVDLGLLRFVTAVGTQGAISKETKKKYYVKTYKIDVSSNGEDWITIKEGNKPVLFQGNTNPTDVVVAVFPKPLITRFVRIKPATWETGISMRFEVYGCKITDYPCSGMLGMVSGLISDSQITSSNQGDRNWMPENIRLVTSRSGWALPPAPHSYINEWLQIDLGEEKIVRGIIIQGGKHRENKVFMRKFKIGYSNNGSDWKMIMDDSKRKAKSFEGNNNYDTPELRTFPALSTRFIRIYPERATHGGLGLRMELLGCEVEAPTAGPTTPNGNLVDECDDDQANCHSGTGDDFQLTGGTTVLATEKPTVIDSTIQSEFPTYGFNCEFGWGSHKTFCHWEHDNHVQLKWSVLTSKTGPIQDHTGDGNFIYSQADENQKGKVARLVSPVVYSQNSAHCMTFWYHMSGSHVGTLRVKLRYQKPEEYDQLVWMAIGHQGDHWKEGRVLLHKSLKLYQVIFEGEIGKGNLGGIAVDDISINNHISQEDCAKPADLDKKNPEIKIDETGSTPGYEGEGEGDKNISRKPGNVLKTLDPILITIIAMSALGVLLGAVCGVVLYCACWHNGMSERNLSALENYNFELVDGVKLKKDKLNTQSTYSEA

pKd (NRP1 (Homo sapiens))	pKd (VEGFR2 (Homo sapiens))	pKd (VEGFR1 (Homo sapiens))	Substance
9.51			VEGF165 (from UniProt P15692)
	10.00	10.48	VEGF (from UniProt P15692)
